Laboratory results as given in PMC9755681, “Next-generation sequencing of a combinatorial peptide phage library screened against ubiquitin identifies peptide aptamers that can inhibit the in vitro ubiquitin transfer cascade” (Frontiers in Microbiology, 2022).
No end group written: not given here. *: point of attachment. Biotin = O=C1N[C@H]2[C@H](CS[C@H]2CCCCC(=O)*)N1

B1: Non-tagged Peptide-37 (FIPAQLHFHWRS), non-biotinylated with a C-terminal NH2 (peptide)
peptide: FIPAQLHFHWRS-NH2
notes: phage-selected 12-mer; source: synthetic peptide
B2: Non-tagged peptide-12 (AKFDMHIATRLS), non-biotinylated with a C-terminal NH2 (peptide)
peptide: AKFDMHIATRLS-NH2
notes: as for B1
B3: peptide-12 (Biotin-SGSG-AKFDMHIATRLS-amide) (peptide)
peptide: Biotin-SGSGAKFDMHIATRLS-NH2
SMILES: CC[C@H](C)[C@H](NC(=O)[C@H](Cc1c[nH]cn1)NC(=O)[C@H](CCSC)NC(=O)[C@H](CC(=O)O)NC(=O)[C@H](Cc1ccccc1)NC(=O)[C@H](CCCCN)NC(=O)[C@H](C)NC(=O)CNC(=O)[C@H](CO)NC(=O)CNC(=O)[C@H](CO)NC(=O)CCCC[C@@H]1SC[C@@H]2NC(=O)N[C@@H]21)C(=O)N[C@@H](C)C(=O)N[C@H](C(=O)N[C@@H](CCCNC(=N)N)C(=O)N[C@@H](CC(C)C)C(=O)N[C@@H](CO)C(N)=O)[C@@H](C)O
notes: spacer; phage-selected 12-mer; also called synthetic peptide 12; source: synthetic peptide (Chiron Mimotopes, Australia)
B4: peptide-37 (Biotin-SGSG-FIPAQLHFHWRS-amide) (peptide)
peptide: Biotin-SGSGFIPAQLHFHWRS-NH2
SMILES: CC[C@H](C)[C@H](NC(=O)[C@H](Cc1ccccc1)NC(=O)CNC(=O)[C@H](CO)NC(=O)CNC(=O)[C@H](CO)NC(=O)CCCC[C@@H]1SC[C@@H]2NC(=O)N[C@@H]21)C(=O)N1CCC[C@H]1C(=O)N[C@@H](C)C(=O)N[C@@H](CCC(N)=O)C(=O)N[C@@H](CC(C)C)C(=O)N[C@@H](Cc1c[nH]cn1)C(=O)N[C@@H](Cc1ccccc1)C(=O)N[C@@H](Cc1c[nH]cn1)C(=O)N[C@@H](Cc1c[nH]c2ccccc12)C(=O)N[C@@H](CCCNC(=N)N)C(=O)N[C@@H](CO)C(N)=O
notes: spacer; phage-selected 12-mer; also called synthetic peptide 37; source: synthetic peptide (Chiron Mimotopes, Australia)

Tests used:
[1] = molecular target: T1, uniformly labeled 15N-human ubiquitin (human, UniProt P0CG48 1-76, uniformly 15N-labeled); experiment: NMR titration; 1H-15N HSQC and 15N relaxation of 0.5 mM 15N-ubiquitin, 10 mM sodium phosphate pH 5.0, 298 K, without and with peptide (0.64 mg peptide 12 or 0.7 mg peptide 37 in 0.55 ml); settings: both partners purified
T1 construct: ubiquitin, human; the 76-residue ubiquitin unit cut from its precursor; also called N15-labeled Ubiquitin; source: bought: Asla Biotech (Latvia)

[2] = molecular target: T2, Ubiquitin (ubiquitination reactions, HDX-MS and reverse-phase HPLC) (human, UniProt P0CG48 1-76); experiment: HDX-MS; global deuteration of intact ubiquitin, 2 uM, ubiquitin to peptide 1:2 and 1:5, room temperature, 1 min in deuterated water with 0.1% DMSO; settings: both partners purified
T2 construct: ubiquitin, human; the 76-residue ubiquitin unit cut from its precursor; That the HDX/HPLC ubiquitin is the Boston Biochem one is surmised; also called ubiquitin protein; native ubiquitin; source: bought: Boston Biochem (ubiquitination reactions)

Binder | binding result [1] | binding result [2]
B1 | binds | –
B2 | binds | –
B3 | – | binds
B4 | – | binds
